Measured values taken from PMC7096168.

T1: dCTCF zinc finger cluster (UniProt Q9VS55 294-614)
T1 sequence: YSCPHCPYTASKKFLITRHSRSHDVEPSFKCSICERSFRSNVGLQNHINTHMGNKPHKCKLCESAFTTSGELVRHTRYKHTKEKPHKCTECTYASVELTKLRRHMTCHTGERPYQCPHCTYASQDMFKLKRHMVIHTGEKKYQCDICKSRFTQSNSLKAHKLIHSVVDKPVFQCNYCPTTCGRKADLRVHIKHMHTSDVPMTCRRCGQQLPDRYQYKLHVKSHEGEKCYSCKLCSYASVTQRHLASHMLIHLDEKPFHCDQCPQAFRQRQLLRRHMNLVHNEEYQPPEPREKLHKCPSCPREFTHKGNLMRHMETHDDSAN

T2: Su(Hw) zinc finger cluster (UniProt P08970 220-619)
T2 sequence: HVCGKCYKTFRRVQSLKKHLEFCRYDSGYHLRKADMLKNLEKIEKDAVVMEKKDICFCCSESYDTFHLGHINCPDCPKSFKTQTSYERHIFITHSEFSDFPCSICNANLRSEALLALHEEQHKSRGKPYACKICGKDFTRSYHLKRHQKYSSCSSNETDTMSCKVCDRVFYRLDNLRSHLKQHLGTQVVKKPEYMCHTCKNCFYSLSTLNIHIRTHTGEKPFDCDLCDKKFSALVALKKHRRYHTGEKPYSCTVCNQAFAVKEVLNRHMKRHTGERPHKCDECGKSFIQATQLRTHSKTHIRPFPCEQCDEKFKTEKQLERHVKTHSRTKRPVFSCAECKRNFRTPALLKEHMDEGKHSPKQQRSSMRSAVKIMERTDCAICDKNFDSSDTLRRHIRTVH

B1: F2177 (dsDNA)
DNA 1: ATGCCTAAAAGTATGCAGAAATTTGTTCAACAAGTCTGCTTATGTGCACCCTCTCGCGATCGGTGGCATAACCAATCGAGGATTCAGCTCTTGAGCTACCTGCCGAAAGGGGCGCGGCGACCTTAAGGGCGACATCTATATCTCGCATAGTGTGCAGAACTGCTTGTTCCTAGTCAC
DNA 2: GTGACTAGGAACAAGCAGTTCTGCACACTATGCGAGATATAGATGTCGCCCTTAAGGTCGCCGCGCCCCTTTCGGCAGGTAGCTCAAGAGCTGAATCCTCGATTGGTTATGCCACCGATCGCGAGAGGGTGCACATAAGCAGACTTGTTGAACAAATTTCTGCATACTTTTAGGCAT
B2: F2177ΔC (dsDNA)
DNA 1: ATGCCTAAAAGTATGCAGAAATTTGTTCAACAAGTCTGCTTATGTGCACCCTCTCGCGATCGGTGGCATAACCAATCGAGGATTCAGCTCTTGAGCTACCTGCCGAAAGGGGCGCGGCAACCTTAAGCTTGCATAGTGTGCAGAACTGCTTGTTCCTAGTCAC
DNA 2: GTGACTAGGAACAAGCAGTTCTGCACACTATGCAAGCTTAAGGTTGCCGCGCCCCTTTCGGCAGGTAGCTCAAGAGCTGAATCCTCGATTGGTTATGCCACCGATCGCGAGAGGGTGCACATAAGCAGACTTGTTGAACAAATTTCTGCATACTTTTAGGCAT
B3: F2177ΔSu (dsDNA)
DNA 1: GTTCAACAAGTCTGCTTATGTGCACCCTCTCGCGATCGGTGGCATAACCAATCGAGGATTCAGCTCTTGAGCTACCTGCCGAAAGGGGCGCGGCGACCTTAAGGGCGACATCTATATCTCGCATAGTGTGCAGAACTGCTTGTTCCTAGTCAC
DNA 2: GTGACTAGGAACAAGCAGTTCTGCACACTATGCGAGATATAGATGTCGCCCTTAAGGTCGCCGCGCCCCTTTCGGCAGGTAGCTCAAGAGCTGAATCCTCGATTGGTTATGCCACCGATCGCGAGAGGGTGCACATAAGCAGACTTGTTGAAC
B4: F2177Δ21 (dsDNA)
DNA 1: ATGCCTAAAAGTATGCAGAAATTTGTTCAACAAGTCTGCTTATGTGCACCCTCTCGCGATCGGTGGCATAACCAATCGAGGATTCAGCTCTTGAGCTACCTGCAAGCTTAAGGGCGACATCTATATCTCGCATAGTGTGCAGAACTGCTTGTTCCTAGTCAC
DNA 2: GTGACTAGGAACAAGCAGTTCTGCACACTATGCGAGATATAGATGTCGCCCTTAAGCTTGCAGGTAGCTCAAGAGCTGAATCCTCGATTGGTTATGCCACCGATCGCGAGAGGGTGCACATAAGCAGACTTGTTGAACAAATTTCTGCATACTTTTAGGCAT
B5: CTCF×4 (dsDNA)
DNA 1: ACTAGTGCTGCAGCGCCACCTGGCCTTGGAGATCCTGCAGCGCCACCTGGCCTTGGAGATCCTGCAGCGCCACCTGGCCTTGGAGATCTCCAAGGCCAGGTGGCGCTGCAGCCCCGGG
DNA 2: CCCGGGGCTGCAGCGCCACCTGGCCTTGGAGATCTCCAAGGCCAGGTGGCGCTGCAGGATCTCCAAGGCCAGGTGGCGCTGCAGGATCTCCAAGGCCAGGTGGCGCTGCAGCACTAGT

Biological target: T1, dCTCF zinc finger cluster
Assay: EMSA

Row | Binder | binding result
1 | B1 | binds
2 | B2 | no binding
3 | B3 | binds
4 | B4 | binds
5 | B5 | binds

Biological target: T2, Su(Hw) zinc finger cluster
Assay: EMSA

Row | Binder | binding result
6 | B1 | binds
7 | B2 | binds
8 | B3 | no binding
